The source of these data is paper PMC8011160, “GroEL protein of the Leptospira spp. interacts with host proteins and induces cytokines secretion on macrophages” (BMC Microbiology, 2021).

Experiment in all cases: ELISA; host protein coated on microtiter wells; recombinant protein varied from 0 to 2 μM; absorbance with BSA subtracted; apparent Kd from the half-maximal binding concentration (GraphPad Prism 6)
Settings in all cases: both partners purified
(In an ELISA, binding on a coated surface is turned into a signal by an enzyme label.)

The target of test [1] is T1, collagen Type IV (purified from basement membrane of Engelbreth-Holm-Swarm mouse sarcoma) (mouse, UniProt P02463 173-1669; P08122 184-1707).
T1 construct: collagen type IV alpha 1 chain, mouse; collagen type IV alpha 2 chain, mouse; also called collagen IV; source: bought: Sigma-Aldrich (purified from basement membrane of Engelbreth-Holm-Swarm mouse sarcoma)

Test [2] deals with T2, laminin (purified from basement membrane of Engelbreth-Holm-Swarm mouse sarcoma) (mouse, UniProt P19137 25-3083; P02469 22-1786; P02468 34-1607).
T2 construct: source: bought: Sigma-Aldrich (purified from basement membrane of Engelbreth-Holm-Swarm mouse sarcoma)

Test [3] deals with T3, elastin (purified from bovine neck ligament) (bovine, UniProt P04985 27-747).
T3 construct: elastin, bovine, purified from neck ligament; an insoluble protein; Insoluble material of tissue; used coated on wells (ELISA) and as a solid in the co-sedimentation; also called insoluble elastin; source: bought: Sigma-Aldrich (purified from bovine neck ligament)
T3 sequence (looked up): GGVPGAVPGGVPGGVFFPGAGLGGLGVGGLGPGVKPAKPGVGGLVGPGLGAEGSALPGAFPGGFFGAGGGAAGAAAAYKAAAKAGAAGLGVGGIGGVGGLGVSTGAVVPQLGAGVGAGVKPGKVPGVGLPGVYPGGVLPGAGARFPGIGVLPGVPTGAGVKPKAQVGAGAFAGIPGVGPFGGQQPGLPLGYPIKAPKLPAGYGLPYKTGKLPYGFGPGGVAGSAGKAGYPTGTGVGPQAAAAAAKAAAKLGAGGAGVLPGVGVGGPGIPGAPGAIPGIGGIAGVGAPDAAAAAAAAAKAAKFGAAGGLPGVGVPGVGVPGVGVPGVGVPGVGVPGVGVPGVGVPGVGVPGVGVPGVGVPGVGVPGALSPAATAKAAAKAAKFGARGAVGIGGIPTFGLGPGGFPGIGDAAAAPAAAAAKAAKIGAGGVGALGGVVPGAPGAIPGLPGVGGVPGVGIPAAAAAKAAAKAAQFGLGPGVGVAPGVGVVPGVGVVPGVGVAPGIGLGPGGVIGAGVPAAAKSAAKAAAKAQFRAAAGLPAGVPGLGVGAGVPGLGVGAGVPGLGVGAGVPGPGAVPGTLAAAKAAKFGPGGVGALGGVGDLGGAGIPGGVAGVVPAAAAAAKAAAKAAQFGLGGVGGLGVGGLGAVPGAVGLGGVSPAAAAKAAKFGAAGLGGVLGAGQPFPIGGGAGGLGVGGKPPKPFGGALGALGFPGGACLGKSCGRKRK

Test [4] deals with T4, fibrinogen (purified from human plasma) (human, UniProt P02671-2 20-644; P02675 31-491; P02679-2 27-437).
T4 construct: fibrinogen alpha chain, human; fibrinogen beta chain, human; fibrinogen gamma chain, human; source: bought: Sigma-Aldrich (purified from human plasma)
T4 sequence (looked up) 1: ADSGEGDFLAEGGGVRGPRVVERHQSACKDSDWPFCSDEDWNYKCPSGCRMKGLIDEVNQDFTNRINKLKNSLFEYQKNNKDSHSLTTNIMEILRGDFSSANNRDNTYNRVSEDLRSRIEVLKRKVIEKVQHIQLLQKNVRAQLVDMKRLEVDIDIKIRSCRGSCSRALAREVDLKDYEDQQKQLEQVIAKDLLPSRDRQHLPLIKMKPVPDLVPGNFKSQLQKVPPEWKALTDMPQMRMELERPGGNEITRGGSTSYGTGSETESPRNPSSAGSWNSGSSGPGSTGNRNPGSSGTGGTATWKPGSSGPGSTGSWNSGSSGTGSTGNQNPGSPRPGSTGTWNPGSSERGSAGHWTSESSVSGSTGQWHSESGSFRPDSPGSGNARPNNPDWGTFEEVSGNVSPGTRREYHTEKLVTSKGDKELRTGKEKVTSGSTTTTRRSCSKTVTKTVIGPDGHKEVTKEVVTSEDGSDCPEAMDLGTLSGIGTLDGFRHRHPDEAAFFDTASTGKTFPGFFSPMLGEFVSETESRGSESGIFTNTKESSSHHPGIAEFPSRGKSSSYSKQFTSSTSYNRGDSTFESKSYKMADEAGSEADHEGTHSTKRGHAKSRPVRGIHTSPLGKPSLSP
T4 sequence (looked up) 2: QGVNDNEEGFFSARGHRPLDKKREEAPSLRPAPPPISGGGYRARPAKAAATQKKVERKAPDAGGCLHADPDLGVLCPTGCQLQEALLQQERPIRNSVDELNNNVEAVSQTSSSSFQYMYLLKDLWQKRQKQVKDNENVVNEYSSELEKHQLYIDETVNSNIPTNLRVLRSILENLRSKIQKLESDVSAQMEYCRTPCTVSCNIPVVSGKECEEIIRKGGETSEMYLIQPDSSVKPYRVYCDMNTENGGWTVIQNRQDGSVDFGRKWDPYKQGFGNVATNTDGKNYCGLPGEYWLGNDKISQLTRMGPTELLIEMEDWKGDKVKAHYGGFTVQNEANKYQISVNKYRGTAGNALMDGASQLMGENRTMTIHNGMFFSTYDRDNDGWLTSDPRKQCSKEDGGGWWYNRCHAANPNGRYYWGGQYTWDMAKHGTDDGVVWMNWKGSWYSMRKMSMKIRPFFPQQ
T4 sequence (looked up) 3: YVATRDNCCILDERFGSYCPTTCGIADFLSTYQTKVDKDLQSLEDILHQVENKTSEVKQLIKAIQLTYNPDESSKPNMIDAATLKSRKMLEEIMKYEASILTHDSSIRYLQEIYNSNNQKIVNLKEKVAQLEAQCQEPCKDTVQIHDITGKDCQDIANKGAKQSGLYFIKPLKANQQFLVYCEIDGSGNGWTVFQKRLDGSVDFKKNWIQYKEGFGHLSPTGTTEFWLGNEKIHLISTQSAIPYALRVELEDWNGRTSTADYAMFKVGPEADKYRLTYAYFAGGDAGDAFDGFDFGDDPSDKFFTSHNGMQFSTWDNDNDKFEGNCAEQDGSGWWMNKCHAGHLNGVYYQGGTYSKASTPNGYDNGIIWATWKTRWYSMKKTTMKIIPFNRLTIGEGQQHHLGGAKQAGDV

Test [5] has as its target T5, collagen Type I (purified from rat tail) (rat, UniProt P02454 152-1207; P02466 86-1125).
T5 construct: collagen type I alpha 1 chain, rat; collagen type I alpha 2 chain, rat; also called collagen I; source: bought: Sigma-Aldrich (purified from rat tail)

T1 sequence (P02463 173-1669, chain 1 of 2): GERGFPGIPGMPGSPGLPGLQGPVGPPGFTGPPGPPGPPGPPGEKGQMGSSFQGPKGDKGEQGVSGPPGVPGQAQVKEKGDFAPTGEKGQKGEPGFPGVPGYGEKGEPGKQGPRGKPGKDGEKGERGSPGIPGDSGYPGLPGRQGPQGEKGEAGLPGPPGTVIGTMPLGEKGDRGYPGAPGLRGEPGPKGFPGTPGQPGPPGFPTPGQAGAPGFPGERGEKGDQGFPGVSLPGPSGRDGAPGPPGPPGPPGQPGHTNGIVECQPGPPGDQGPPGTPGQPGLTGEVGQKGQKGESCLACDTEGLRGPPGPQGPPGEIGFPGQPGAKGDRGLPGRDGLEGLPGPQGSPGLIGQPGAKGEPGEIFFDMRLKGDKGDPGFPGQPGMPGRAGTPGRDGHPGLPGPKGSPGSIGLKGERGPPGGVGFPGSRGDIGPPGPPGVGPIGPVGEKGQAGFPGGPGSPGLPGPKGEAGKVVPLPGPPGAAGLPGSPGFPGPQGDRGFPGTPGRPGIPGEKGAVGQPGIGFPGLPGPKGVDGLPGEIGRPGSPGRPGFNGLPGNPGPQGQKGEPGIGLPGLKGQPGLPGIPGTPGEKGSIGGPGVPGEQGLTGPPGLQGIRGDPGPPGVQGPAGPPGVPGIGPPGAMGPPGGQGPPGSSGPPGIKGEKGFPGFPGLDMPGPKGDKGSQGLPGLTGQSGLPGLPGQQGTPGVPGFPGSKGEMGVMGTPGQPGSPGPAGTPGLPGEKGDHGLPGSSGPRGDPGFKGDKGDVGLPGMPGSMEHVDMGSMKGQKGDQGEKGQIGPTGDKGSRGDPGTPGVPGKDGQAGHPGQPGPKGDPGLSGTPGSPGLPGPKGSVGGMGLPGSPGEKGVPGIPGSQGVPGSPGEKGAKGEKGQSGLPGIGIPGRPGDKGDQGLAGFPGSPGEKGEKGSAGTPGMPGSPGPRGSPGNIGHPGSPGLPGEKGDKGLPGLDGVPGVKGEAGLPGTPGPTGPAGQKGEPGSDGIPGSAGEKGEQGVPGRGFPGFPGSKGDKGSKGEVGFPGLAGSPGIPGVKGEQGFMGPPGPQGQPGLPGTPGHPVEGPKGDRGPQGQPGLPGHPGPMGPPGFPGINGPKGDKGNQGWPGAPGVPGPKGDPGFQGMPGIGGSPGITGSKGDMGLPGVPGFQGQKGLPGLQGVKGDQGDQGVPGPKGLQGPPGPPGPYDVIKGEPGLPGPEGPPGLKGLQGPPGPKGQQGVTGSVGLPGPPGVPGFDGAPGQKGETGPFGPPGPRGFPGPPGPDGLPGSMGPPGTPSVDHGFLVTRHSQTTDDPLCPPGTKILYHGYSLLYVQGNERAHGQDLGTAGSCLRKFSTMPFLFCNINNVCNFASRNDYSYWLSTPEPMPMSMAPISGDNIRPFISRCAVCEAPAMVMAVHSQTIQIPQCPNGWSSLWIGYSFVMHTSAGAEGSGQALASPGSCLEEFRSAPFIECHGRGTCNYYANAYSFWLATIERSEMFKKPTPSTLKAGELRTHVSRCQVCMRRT
T1 sequence (P08122 184-1707, chain 2 of 2): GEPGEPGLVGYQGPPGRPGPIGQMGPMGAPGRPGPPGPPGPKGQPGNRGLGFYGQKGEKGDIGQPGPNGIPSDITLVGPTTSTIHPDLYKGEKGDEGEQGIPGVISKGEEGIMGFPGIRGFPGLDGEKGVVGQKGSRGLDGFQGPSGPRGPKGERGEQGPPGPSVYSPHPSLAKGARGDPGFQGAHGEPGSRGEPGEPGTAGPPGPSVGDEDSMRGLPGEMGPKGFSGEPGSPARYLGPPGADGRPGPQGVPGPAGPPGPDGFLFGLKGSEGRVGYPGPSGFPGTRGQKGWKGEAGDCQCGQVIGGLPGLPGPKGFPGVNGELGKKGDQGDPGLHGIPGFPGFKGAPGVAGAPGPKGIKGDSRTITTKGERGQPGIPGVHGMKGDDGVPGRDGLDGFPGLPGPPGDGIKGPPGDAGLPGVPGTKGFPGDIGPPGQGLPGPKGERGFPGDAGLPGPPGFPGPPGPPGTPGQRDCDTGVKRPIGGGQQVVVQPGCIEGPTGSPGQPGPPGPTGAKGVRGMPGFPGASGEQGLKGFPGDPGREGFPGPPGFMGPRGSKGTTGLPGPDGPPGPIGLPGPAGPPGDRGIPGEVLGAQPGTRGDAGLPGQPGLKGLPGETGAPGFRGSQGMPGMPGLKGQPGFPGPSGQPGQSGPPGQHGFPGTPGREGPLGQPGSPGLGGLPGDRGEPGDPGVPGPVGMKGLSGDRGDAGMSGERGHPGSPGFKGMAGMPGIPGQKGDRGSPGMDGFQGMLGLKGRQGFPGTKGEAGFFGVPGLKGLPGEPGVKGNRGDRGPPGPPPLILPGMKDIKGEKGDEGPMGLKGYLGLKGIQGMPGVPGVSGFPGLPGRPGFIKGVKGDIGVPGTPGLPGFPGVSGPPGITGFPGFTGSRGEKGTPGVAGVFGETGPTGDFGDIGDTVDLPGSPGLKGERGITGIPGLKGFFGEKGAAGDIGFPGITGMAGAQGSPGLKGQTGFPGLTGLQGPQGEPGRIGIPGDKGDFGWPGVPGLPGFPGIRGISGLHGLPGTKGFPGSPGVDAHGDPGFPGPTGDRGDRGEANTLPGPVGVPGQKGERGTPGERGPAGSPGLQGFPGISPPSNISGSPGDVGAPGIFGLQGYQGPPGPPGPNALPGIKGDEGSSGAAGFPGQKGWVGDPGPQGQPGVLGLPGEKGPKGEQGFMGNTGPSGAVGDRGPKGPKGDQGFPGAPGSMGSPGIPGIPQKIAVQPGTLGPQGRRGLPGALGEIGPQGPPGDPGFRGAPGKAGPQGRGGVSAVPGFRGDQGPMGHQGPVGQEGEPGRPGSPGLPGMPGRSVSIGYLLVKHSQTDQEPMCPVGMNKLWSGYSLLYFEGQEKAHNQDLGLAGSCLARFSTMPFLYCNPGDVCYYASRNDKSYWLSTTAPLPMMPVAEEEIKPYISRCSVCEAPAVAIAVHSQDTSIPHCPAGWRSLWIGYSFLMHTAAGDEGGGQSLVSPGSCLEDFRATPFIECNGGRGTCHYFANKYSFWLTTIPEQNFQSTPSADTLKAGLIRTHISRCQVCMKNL
T5 sequence (P02454 152-1207, chain 1 of 2): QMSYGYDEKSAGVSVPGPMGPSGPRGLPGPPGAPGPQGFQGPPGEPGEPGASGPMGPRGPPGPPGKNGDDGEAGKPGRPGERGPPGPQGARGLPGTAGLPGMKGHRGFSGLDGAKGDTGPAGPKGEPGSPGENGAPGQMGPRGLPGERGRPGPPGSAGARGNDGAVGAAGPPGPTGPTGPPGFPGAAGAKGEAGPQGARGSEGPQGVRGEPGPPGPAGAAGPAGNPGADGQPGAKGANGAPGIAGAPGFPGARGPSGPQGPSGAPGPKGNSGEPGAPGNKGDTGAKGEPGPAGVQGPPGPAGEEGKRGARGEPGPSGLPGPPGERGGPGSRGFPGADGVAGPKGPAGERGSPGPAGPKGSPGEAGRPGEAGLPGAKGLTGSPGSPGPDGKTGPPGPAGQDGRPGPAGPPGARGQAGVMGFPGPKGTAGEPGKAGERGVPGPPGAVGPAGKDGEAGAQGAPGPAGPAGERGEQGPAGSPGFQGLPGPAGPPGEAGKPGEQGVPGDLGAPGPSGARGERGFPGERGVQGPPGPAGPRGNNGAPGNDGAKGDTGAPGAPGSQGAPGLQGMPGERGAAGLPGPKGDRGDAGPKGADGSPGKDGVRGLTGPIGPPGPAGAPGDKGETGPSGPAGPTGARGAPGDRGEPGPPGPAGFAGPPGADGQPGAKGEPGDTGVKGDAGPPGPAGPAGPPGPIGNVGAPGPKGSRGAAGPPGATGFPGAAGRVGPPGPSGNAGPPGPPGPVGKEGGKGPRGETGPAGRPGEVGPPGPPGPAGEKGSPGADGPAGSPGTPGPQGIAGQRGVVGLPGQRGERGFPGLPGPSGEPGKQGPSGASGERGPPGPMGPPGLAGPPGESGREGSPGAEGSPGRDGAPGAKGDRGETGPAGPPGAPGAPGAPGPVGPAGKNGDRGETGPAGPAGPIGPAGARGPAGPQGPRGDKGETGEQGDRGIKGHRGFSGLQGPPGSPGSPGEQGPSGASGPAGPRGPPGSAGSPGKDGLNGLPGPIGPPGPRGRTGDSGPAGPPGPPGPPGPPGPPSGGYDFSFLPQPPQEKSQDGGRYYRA
T5 sequence (P02466 86-1125, chain 2 of 2): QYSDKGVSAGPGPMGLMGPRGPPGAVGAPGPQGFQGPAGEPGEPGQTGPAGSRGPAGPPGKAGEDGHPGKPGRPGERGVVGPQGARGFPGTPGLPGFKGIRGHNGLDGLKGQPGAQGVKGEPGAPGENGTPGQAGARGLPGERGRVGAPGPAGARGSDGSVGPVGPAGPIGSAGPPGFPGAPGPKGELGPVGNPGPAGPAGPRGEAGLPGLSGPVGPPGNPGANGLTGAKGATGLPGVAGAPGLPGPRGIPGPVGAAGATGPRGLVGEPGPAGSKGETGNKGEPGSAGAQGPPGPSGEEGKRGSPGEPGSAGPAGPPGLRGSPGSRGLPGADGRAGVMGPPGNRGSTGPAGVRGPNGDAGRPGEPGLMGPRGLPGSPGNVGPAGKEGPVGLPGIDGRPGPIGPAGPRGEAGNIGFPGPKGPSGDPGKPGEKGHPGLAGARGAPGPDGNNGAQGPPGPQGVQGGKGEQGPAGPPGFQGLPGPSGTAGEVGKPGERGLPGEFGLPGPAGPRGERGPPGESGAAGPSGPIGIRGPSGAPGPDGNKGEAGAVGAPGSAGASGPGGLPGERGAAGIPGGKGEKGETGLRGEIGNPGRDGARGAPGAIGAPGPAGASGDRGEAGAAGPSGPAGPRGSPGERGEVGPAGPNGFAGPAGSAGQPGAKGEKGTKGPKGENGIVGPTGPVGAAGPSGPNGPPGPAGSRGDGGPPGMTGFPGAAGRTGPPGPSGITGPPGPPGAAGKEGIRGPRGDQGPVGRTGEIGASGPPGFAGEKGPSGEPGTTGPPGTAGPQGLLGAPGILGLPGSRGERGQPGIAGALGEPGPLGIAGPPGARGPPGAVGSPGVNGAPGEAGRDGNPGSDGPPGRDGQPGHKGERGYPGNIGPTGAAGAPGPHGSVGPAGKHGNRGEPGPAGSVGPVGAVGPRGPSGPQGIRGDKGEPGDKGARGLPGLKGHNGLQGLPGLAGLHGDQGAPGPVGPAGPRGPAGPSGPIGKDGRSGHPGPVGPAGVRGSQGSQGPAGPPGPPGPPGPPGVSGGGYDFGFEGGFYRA

B1: GroEL protein of Leptospira interrogans (recombinant, His-tagged) (natural protein, UniProt P61438 1-546, looked up)
chain: MAKDIEYNETARRKLLEGVNKLANAVKVTLGPKGRNVVIDKKFGAPTITKDGVTVAKEIELEDPLENMGAQMVKEVSTKTNDVAGDGTTTATILAQSIINEGLKNVTAGANPMSLKKGIDKAVTAAVESIQKRAVKIENKKDIANVASISANNDNTIGNLIADAMDKVGKDGVITVEEAKSIETTLDVVEGMQFDRGYISPYMVTDAESMVATLNDPFILIYDKKISSMKDLIHILEKVAQAGKPLVIISEEVEGEALATIVVNTLRKTISCVAVKAPGFGDRRKSMLEDIAILTGGQVISEDLGMKLENTTLQMLGRANKVTVDKENTTIIEGKGQTKEIQGRIGQIKKQIEDTTSEYDREKLQERLAKLAGGVAVIHVGAATEVEMKEKKARVEDALSATRAAVEEGIVPGGGLTLLKAQEAVGSLKLDGDEATGAKIIFRALEEPIRMITSNAGLEGSVIVEHAKAKKGNEGFNALTMVWEDMIQAGVVDPAKVVRSALQNAASIGSMILTTEVTITDKPDKDAPNPMAGMGGGGMGGMGGMM
notes: GroEL (chaperonin 60, HSP60) of L. interrogans serovar Copenhageni strain Fiocruz L1-130, GenBank AAS69936.1, 60 kDa; Cloned BamHI/HindIII into the vector pAE; as far as I recall pAE adds an N-terminal His6 tag; also called chaperonin 60; Cpn60; source: LPS removed on Detoxi-Gel
Regarding B1, the Kd is 6 ± 1 nM in test [1], 115 ± 12 nM in test [2] and 23 ± 3 nM in test [3].

B2: truncated form of leptospiral immunoglobulin-like protein B (LigBC, amino acids 631-1156) (domain or fragment)
chain: AEIKNTSGSKGITNTLTPGSSEISAALGSIKSSKVILKVTPAQLISIAVTPINPSVAKGLIRQFKATGTYTDHSVQDVTALATWSSSNPGKAMVNNVTGSVTTVATGNTNIKATIDSISGSSVLNVTPALLTSIEITPTINSITHGLTKQFKATGIFSDKSTQNLTQLVTWISSDPSKIEIENTSGKKGIATASKLGSSNIKAVYKFIQSSPIPITVTDLKLKSITISPSSSSIAKGLTQQFKAIGTFIDGSEQEITNLVTWYSSKSDVAPINNAANAKGLATALSIGSSNISAIYNSISSNKINFNVSAATLDSIKINPVNNNIAKGLTQQYTALGVYSDSTIQDISDSVTWSSSNSDSISISNSTETKGKATALQIGNSKITATYNSISENIDITVSAATLSSISISPINTNINATVSKQFFAVGTYSDGTKADLTSSVTWSSSNKSQAKVSNASKTKGLVTGIASGNSIITATYGSVSGNTILTVNKTDTIAPTVQSVVSLSPTTIQVVYSESINNKEALDLS
notes: leptospiral immunoglobulin-like protein B (LigB), GenBank AAS69085, amino acids 631-1156, 56 kDa; half of immunoglobulin-like repeat 7 plus domains 8 to 12; source: LPS removed on Detoxi-Gel
On to B2, for which the Kd is 4 ± 1 nM in test [4]; 8 ± 2 nM in test [5]; 7 ± 1 nM in test [1]; 41 ± 3 nM in test [2]; 4 ± 1 nM in test [3].
